Measurements: paper doi:10.1101/442517 (bioRxiv, 2018)

Legend:
[1] = target: RaxX21-sY (tyrosine sulfated synthetic 21-residue derivative of RaxX, residues 35-55) (Xanthomonas oryzae pv. oryzae); test: MST
[2] = target: RaxX21-nY (non-sulfated synthetic 21-residue derivative of RaxX, residues 35-55) (Xanthomonas oryzae pv. oryzae); test: MST

B1: XA21 extracellular domain (XA21^ECD; XA21 residues 23-649) (domain or fragment)
chain: SDDDGDAAGDELALLSFKSSLLYQGGQSLASWNTSGHGQHCTWVGVVCGRRRRRHPHRVVKLLLRSSNLSGIISPSLGNLSFLRELDLGDNYLSGEIPPELSRLSRLQLLELSDNSIQGSIPAAIGACTKLTSLDLSHNQLRGMIPREIGASLKHLSNLYLYKNGLSGEIPSALGNLTSLQEFDLSFNRLSGAIPSSLGQLSSLLTMNLGQNNLSGMIPNSIWNLSSLRAFSVRENKLGGMIPTNAFKTLHLLEVIDMGTNRFHGKIPASVANASHLTVIQIYGNLFSGIITSGFGRLRNLTELYLWRNLFQTREQDDWGFISDLTNCSKLQTLNLGENNLGGVLPNSFSNLSTSLSFLALELNKITGSIPKDIGNLIGLQHLYLCNNNFRGSLPSSLGRLKNLGILLAYENNLSGSIPLAIGNLTELNILLLGTNKFSGWIPYTLSNLTNLLSLGLSTNNLSGPIPSELFNIQTLSIMINVSKNNLEGSIPQEIGHLKNLVEFHAESNRLSGKIPNTLGDCQLLRYLYLQNNLLSGSIPSALGQLKGLETLDLSSNNLSGQIPTSLADITMLHSLNLSFNSFVGEVPTIGAFAAASGISIQGNAKLCGGIPDLHLPRCCPLLENRK
Q: What does the source list for B1?
A: Kd [1]: 20 nM; Kd [2]: 400 nM
